Test results: PMC6144786, “DNA binding with a minimal scaffold: structure–function analysis of Lig E DNA ligases” (Nucleic Acids Research, 2018)

Legend:
Ame-Lig = molecular target: T1, Ame-Lig (Alteromonas mediterranea, UniProt Z9I348I3L4); experiment: molecular beacon ligation assay; type: biochemical; details: 0.1 mM ATP, 300 nM nicked DNA substrate, 10 mM MgCl2, pH 8.0, 30 °C
T1 construct: predicted mature form, signal peptide omitted (cleavage between 21 and 22), codon-optimised synthetic gene in pDEST17; monomer in the asymmetric unit with nicked DNA
T1 sequence (Z9I348I3L4 2-297): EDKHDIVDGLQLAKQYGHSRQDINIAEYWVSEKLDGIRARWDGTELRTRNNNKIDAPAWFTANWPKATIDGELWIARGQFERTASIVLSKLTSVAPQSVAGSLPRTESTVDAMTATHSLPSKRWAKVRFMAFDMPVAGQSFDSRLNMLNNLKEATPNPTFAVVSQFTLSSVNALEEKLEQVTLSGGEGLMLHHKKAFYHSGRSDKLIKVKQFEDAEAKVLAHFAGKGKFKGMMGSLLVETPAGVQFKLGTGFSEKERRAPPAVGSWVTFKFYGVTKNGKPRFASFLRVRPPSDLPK

Psy-Lig K212A = experiment: MST; details: 5' phosphate on S24 at nick, MST: 50 mM Tris, 100 mM NaCl, 1 mM DTT, 5 mM EDTA, 1 mM ATP, 0.5% Tween, 40 nM DNA, incubated 4 C, read 25 C, EMSA: 50 mM Tris pH 8.0, 50 mM NaCl, 0.
Psy-Lig S215A = experiment: MST; details: 5' phosphate on S24 at nick, MST: 50 mM Tris, 100 mM NaCl, 1 mM DTT, 5 mM EDTA, 1 mM ATP, 0.5% Tween, 40 nM DNA, incubated 4 C, read 25 C, EMSA: 50 mM Tris pH 8.0, 50 mM NaCl, 0.
Psy-Lig R69A = experiment: MST; details: 5' phosphate on S24 at nick, MST: 50 mM Tris, 100 mM NaCl, 1 mM DTT, 5 mM EDTA, 1 mM ATP, 0.5% Tween, 40 nM DNA, incubated 4 C, read 25 C, EMSA: 50 mM Tris pH 8.0, 50 mM NaCl, 0.
Psy-Lig N144A = experiment: MST; details: 5' phosphate on S24 at nick, MST: 50 mM Tris, 100 mM NaCl, 1 mM DTT, 5 mM EDTA, 1 mM ATP, 0.5% Tween, 40 nM DNA, incubated 4 C, read 25 C, EMSA: 50 mM Tris pH 8.0, 50 mM NaCl, 0.
Psy-Lig K25A = experiment: MST; details: 5' phosphate on S24 at nick, MST: 50 mM Tris, 100 mM NaCl, 1 mM DTT, 5 mM EDTA, 1 mM ATP, 0.5% Tween, 40 nM DNA, incubated 4 C, read 25 C, EMSA: 50 mM Tris pH 8.0, 50 mM NaCl, 0.
[1] = test system: Psy-Lig WT (Lig E DNA ligase); experiment: MST; details: 5' phosphate on S24 at nick, MST: 50 mM Tris, 100 mM NaCl, 1 mM DTT, 5 mM EDTA, 1 mM ATP, 0.5% Tween, 40 nM DNA, incubated 4 C, read 25 C, EMSA: 50 mM Tris pH 8.0, 50 mM NaCl, 0.
Psy-Lig R80A = experiment: MST; details: 5' phosphate on S24 at nick, MST: 50 mM Tris, 100 mM NaCl, 1 mM DTT, 5 mM EDTA, 1 mM ATP, 0.5% Tween, 40 nM DNA, incubated 4 C, read 25 C, EMSA: 50 mM Tris pH 8.0, 50 mM NaCl, 0.
Psy-Lig K176A = experiment: MST; details: 5' phosphate on S24 at nick, MST: 50 mM Tris, 100 mM NaCl, 1 mM DTT, 5 mM EDTA, 1 mM ATP, 0.5% Tween, 40 nM DNA, incubated 4 C, read 25 C, EMSA: 50 mM Tris pH 8.0, 50 mM NaCl, 0.
Psy-Lig K193A = experiment: MST; details: 5' phosphate on S24 at nick, MST: 50 mM Tris, 100 mM NaCl, 1 mM DTT, 5 mM EDTA, 1 mM ATP, 0.5% Tween, 40 nM DNA, incubated 4 C, read 25 C, EMSA: 50 mM Tris pH 8.0, 50 mM NaCl, 0.

## Nc1ncnc2c1ncn2[C@@H]1O[C@H](COP(=O)(O)OP(=O)(O)OP(=O)(O)O)[C@@H](O)[C@H]1O [ATP]
Ame-Lig
  molecular beacon ligation assay: Ligase activity of Ame-Lig and Psy-Lig mutants were measured by molecular beacon (MB) assay

## AGGCCATGGCTGATATCGGA / TCCGAATTCGAGCTCCGTCG / CGACGGAGCTCGAATTCGGATCCGATATCAGCCATGGCCT [nicked 40-mer (MST)]
Psy-Lig K212A
  K half: 7.1 µM
Psy-Lig S215A
  K half: 1740 nM
Psy-Lig R69A
  K half: 3.08 µM
Psy-Lig N144A
  K half: 2450 nM
Psy-Lig K25A
  K half: 3.3 µM
[1]
  K half: 980 nM
Psy-Lig R80A
  K half: 3.62 µM
Psy-Lig K176A
  K half: 5.17 µM
Psy-Lig K193A
  K half: 2550 nM
